# According to patent publication US20140004107A1 (published 2014):
# Numbering of substitutions follows the chain as printed.
# T1: cynomolgus monkey ST2 (SPR analyte) (cynomolgus monkey, UniProt Q01638 19-322 (human entry))
# T1 construct: The cyno ST2 reagent injected in SPR; leader is 1-18; also called cy ST2
# T1 chain: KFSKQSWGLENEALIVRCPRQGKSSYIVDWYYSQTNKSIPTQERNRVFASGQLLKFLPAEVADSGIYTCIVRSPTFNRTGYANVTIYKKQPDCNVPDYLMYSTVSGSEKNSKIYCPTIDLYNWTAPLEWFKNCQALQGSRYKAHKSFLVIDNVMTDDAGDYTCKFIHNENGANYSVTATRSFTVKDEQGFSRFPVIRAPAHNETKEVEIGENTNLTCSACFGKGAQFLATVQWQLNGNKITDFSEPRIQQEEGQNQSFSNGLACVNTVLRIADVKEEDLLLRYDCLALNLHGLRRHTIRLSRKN
# T2: human ST2 (SPR analyte) (human, UniProt Q01638 19-322)
# T2 construct: The ST2 reagent injected in SPR; leader is 1-18; also called hu ST2
# T2 sequence: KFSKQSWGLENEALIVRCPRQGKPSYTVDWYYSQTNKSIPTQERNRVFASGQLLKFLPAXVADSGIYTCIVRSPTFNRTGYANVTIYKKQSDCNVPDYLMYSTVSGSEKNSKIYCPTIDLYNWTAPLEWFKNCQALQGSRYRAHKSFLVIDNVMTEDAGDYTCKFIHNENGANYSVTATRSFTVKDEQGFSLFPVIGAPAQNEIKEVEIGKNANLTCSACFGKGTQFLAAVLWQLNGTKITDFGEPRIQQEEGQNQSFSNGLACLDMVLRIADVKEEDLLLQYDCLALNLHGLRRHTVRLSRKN
# T3: soluble human ST2-FLAG His (human, UniProt Q01638 19-322, limits assumed)
# T3 construct: also called human ST2-FH; 6xhistidine tagged human ST2; not shown: FLAG and 6x histidine tags
# T3 sequence: T2 sequence
# T4: human ST2 on human primary cells (human, UniProt Q01638 19-556)
# T4 sequence: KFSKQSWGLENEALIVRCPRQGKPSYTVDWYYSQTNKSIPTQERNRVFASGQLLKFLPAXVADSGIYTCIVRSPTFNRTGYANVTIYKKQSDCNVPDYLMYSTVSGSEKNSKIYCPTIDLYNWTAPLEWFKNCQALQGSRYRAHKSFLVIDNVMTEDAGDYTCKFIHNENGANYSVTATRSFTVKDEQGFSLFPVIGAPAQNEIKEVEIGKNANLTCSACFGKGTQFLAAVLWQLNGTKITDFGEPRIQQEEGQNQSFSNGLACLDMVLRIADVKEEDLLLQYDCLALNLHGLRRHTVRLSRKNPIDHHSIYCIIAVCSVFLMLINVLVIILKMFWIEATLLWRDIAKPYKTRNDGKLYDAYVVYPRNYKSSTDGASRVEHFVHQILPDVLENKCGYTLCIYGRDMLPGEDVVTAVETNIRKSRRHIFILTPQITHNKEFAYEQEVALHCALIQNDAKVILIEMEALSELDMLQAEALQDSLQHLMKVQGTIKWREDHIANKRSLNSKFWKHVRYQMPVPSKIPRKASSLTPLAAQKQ
# T5: cynomolgus monkey ST2 on cynomolgus CD4+ T cells (cynomolgus monkey, UniProt Q01638 19-556 (human entry))
# T5 chain: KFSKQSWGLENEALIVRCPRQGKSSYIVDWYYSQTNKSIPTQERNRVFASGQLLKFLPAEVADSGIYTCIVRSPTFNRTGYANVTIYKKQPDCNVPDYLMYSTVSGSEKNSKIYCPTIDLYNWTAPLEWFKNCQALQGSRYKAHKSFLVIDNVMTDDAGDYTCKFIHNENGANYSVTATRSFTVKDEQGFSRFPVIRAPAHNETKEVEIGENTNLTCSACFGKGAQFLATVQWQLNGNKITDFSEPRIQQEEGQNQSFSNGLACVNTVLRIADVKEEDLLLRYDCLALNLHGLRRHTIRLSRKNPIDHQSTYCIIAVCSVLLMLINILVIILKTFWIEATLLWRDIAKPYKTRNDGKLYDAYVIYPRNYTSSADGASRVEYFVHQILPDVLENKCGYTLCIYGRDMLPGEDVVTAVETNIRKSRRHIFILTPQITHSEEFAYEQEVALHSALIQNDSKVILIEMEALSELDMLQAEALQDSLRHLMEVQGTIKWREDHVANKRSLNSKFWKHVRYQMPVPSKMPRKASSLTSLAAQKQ
# T6: biotinylated human ST2-Fc (human, UniProt Q01638 19-331, biotinylated)
# T6 construct: also called ST2-Fc fusion protein; not shown: human antibody Fc domain
# T6 sequence: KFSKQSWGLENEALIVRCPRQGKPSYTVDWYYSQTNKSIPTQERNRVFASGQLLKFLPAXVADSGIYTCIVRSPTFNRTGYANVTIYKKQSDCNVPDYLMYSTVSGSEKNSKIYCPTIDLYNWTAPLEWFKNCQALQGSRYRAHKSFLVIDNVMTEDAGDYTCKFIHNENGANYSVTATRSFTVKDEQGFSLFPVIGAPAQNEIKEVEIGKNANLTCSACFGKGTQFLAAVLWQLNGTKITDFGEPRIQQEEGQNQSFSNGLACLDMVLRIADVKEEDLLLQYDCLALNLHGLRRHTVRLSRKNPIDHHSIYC
# B1: Ab4 (antibody, human IgG2, kappa, V domains shown)
# VH: QVQLVQSGAEVKKPGASVKVSCEVSGFILTELSVNWVRQAPGKGLEWMGGFDPEDGKTIYAQKFQGRVTLTEDTSTDTAYMELSSLRSEDTAVYYCATWWDFHFDFWGQGTLVTVSS
# VL: DFVMTQTPLSLSVTPGQPASISCKSSQSLLHSNGKTYLYWFLQKPGQPPQLLIYEVSNRFSGVPDRFSGSGSGTDFTLKISRVEAEDVGVYYCMQSIQLPLTFGGGTKVEIKR
# notes: fully human anti-ST2 antibody
# B2: Ab1 (antibody, human IgG2, kappa, V domains shown)
# VH: QVQLVQSGAEVKKPGASVKVSCKVSGYTLTELSIHWVRQAPGKGLEWMGGFGPEDGETIYAQKFQGRVTMTEDTSTDTAYMELSSLRSEDTAVYYCTTEDSSGLFDYWGQGTLVTVSS
# VL: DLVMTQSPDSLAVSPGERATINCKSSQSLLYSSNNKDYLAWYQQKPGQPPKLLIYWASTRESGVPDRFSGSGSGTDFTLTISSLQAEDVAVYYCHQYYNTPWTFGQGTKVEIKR
# notes: fully human anti-ST2 antibody
# B3: Ab3 (antibody, human IgG2, kappa, V domains shown)
# VH: EVQLVESGGGLVQPGGSLRLSCAASGFTFSTYDMHWIRQAPGKNLEWVSAIDLAGDTYYPGSVKGRFTISREDAKNSLYLQMNSLRAGDTAVYYCARGGDGYNYDYYGIDVWGQGTTVTVSS
# VL: DIVMTQSPLSLPVTPGEPASISCRSSQSLLHSDGYHYLDWYLQKPGQSPQLLIYLGSNRASGVPDRFTGSGSGTDFTLKISRVEAEDVGVYYCMQALQILTFGGGTKVEIKR
# notes: fully human anti-ST2 antibody
# B4: Ab30 (antibody, human IgG2, kappa, V domains shown)
# VH: QVQLVESGGGVVQPGRSLRLSCTASGFTFSSHGMHWVRQAPGKGLEWVTIIWFDGNNKYYADSVEGRFTISRDNSKNTLFLQMNSLRAEDTAVYYCAREGAEQGFIDLWGRGTLVTVSS
# VL: DIQMTQSPSSLSASVGDRVTITCQASQDISNYLNWYHQKPGKAPKLLIYDASNLETGVPSRFSGSGSGTDFTFTISGLQPEDIATYYCQQHDNLPLTFGGGTKVEIKR
# notes: fully human anti-ST2 antibody
# B5: Ab32 (antibody, human IgG2, kappa, V domains shown)
# VH: EVQLVESGGGLVQPGGSLRLSCAASGFTFSTFDMHWVRQATGKGLEWVSSIDTEGDTYYSGSVKGRFTISRENARNSLYLQMNSLRAGDTAVYYCTRGEDWSDDDYYYGLDVWGQGTTVTVSS
# VL: NIVMTQTPLSLSVTPGQPASISCKSSQSLLHSDGKTYLFWYLQKPGQPPQLLIYGVSNRFSGVPDRFSGSGSGTDFTLKISRVEAEDVGVYYCMQSLQLFTFGPGTKVEIKR
# notes: fully human anti-ST2 antibody
# B6: Ab33 (antibody, human IgG2, kappa, V domains shown)
# VH: B5 VH with A40V, T41P, V48I, S60P
# VL: B5 VL with Y92S, E109D
# notes: fully human anti-ST2 antibody
# B7: Ab6 (antibody, human IgG2, kappa, V domains shown)
# VH: B3 VH with I37V, A40T, P41T, N44G
# VL: B3 VL with T68S, K79N, I99T
# notes: fully human anti-ST2 antibody
# B8: Ab7 (antibody, human IgG2, kappa, V domains shown)
# VH: B3 VH with I37V, A40T, P41T, N44G
# VL: B3 VL with T68S, K79N, I99T
# notes: fully human anti-ST2 antibody
# B9: Ab5 (antibody, human IgG2, kappa, V domains shown)
# VH: EVQLVESGGGWVQPGGSLRLSCAASGFTFSSYDMYWVRQATGKGLEWVSGIDTVGDTYYPDSVKGRFTISRENAKNSVYLQMNTLRAGDTAVYYCVRGIYGDFYYYGLDVWGHGTTVTVSS
# VL: B3 VL with H31Y, Y35N, H36N, Q50H, T68S, E86D, I99T
# Molecular target: T1, cynomolgus monkey ST2 (SPR analyte)
# Experiment: SPR Biacore 3000, captured antibody, ST2 analyte, 25 C
Kd [nM],koff [s⁻¹],kon [M⁻¹ s⁻¹],Binder
0.516,0.00129,2.5e+06,B1
0.117,0.000197,1.69e+06,B2
0.127,8.55e-05,674000,B3

# Molecular target: T2, human ST2 (SPR analyte)
# Experiment: as above
Kd [nM],koff [s⁻¹],kon [M⁻¹ s⁻¹],Binder
0.301,0.000706,2.35e+06,B1
0.0777,0.000111,1.43e+06,B2
0.238,9.5e-05,400000,B3

# Molecular target: T1, cynomolgus monkey ST2 (SPR analyte)
# Experiment: SPR ProteOn XPR-36, captured antibody, ST2 analyte, 25 C
row,Kd [nM],Binder
1,0.0102,B4
2,0.0558,B5
3,0.0776,B6

# Molecular target: T2, human ST2 (SPR analyte)
# Experiment: as above
row,Kd [nM],Binder
1,0.0097,B4
2,0.0602,B5
3,0.0844,B6

# Molecular target: T2, human ST2 (SPR analyte)
# Experiment: SPR Biacore 4000, association at pH 7.4, dissociation at pH 7.4 (estimated kd)
# Procedure: (§1) The association (5 min) rates at pH 7.4 and dissociation (10 min) rates at pH 5.5 and 7.4 were monitored at a flow rate of 30 uL/min. The reference subtracted data was fit to a 1:1 model in Scrubber.
row,koff [s⁻¹],Binder
1,0.000632,B1
2,0.000134,B2
3,2.73e-05,B3

# Molecular target: T2, human ST2 (SPR analyte)
# Experiment: SPR Biacore 4000, kd at pH 5.5 against kd at pH 7.4
# Procedure: as §1
row,pH 5.5/pH 7.4 koff fold change [fold],Binder
1,16.9,B1
2,88.1,B2
3,2.9,B3

# Molecular target: T3, soluble human ST2-FLAG His
# Experiment: AlphaScreen, biotinylated human IL-33 with human ST2-FH, antibody at 12.5 ug/ml
row,% inhib ST2-IL33 AS 12.5 ug/ml [%],Binder
1,98.4,B1
2,98.1,B2
3,98.5,B7
4,98.9,B8
5,98.8,B3

# Molecular target: T2, human ST2 (SPR analyte)
# Experiment: SPR Biacore 4000, association at pH 7.4, dissociation at pH 5.5 (estimated kd)
# Procedure: as §1
row,koff [s⁻¹],Binder
1,0.0107,B1
2,0.0118,B2
3,7.91e-05,B3

# Molecular target: T4, human ST2 on human primary cells
# Experiment: cell-based or functional assay
row,"IC-50, human eosinophil IL-8 release assay (IL-33 and IL-3 stimulation) [pM]",Binder
1,14.1,B1
2,51.5,B2
3,63,B7
4,73.3,B9
5,40.7,B8
6,50.4,B3

# Molecular target: T5, cynomolgus monkey ST2 on cynomolgus …
# Experiment: cell-based or functional assay
row,"IC-50, cynomolgus monkey CD4+ T cell IFNγ release assay (IL-33, IL-2 and IL-12p70 stimulation) [pM]",Binder
1,4.03,B1
2,15.8,B2
3,47.1,B7
4,12.9,B9
5,40,B8
6,15.2,B3

# Molecular target: T4, human ST2 on human primary cells
# Experiment: cell-based or functional assay
# Remark: another data set of the same source
row,IC50 of inhibition of human IL-33-induced IL-5 production from human CD4+ T cells [nM],Binder
1,10.7,B2
2,64.5,B9

# Molecular target: T6, biotinylated human ST2-Fc
# Experiment: AlphaScreen, IL-33 mediated association of biotinylated human ST2-Fc with human AcP-FH, antibody at 12.5 ug/ml
# Procedure: In the second assay, antibodies were evaluated for the ability to inhibit the IL-33 mediated association of ST2 with the co-receptor AcP. […] The ST2/AcP AlphaScreen was conducted in 8 ul reactions in a 384 well optiplate (Perkin Elmer). […] After the addition of all assay components the plates were incubated overnight in the dark at room temperature. The next day the plates were read on a 2103 Envision multilable reader (Perkin Elmer) using the same parameters as above for the first assay.
row,% inhib ST2-AcP AS 12.5 ug/ml [%],Binder
1,77.8,B1
2,86.9,B2
3,71.2,B7
4,75.7,B8
5,68.7,B3
